Data reported in paper PMC2728148.
Read-outs that look alike come from different tables or passages of the source.

What was measured:
Experiment in all cases: EMSA
CSB wild-type [1] = target: T1, CSB wild-type (Homo sapiens, UniProt Q03468 1-1493)
CSB wild-type [2] = target: T1, CSB wild-type; remark: listed apart in the source
CSB wild-type [3] = target: T1, CSB wild-type; remark: listed apart in the source
CSB wild-type [4] = target: T1, CSB wild-type; remark: listed apart in the source

T1 sequence (Q03468 whole entry): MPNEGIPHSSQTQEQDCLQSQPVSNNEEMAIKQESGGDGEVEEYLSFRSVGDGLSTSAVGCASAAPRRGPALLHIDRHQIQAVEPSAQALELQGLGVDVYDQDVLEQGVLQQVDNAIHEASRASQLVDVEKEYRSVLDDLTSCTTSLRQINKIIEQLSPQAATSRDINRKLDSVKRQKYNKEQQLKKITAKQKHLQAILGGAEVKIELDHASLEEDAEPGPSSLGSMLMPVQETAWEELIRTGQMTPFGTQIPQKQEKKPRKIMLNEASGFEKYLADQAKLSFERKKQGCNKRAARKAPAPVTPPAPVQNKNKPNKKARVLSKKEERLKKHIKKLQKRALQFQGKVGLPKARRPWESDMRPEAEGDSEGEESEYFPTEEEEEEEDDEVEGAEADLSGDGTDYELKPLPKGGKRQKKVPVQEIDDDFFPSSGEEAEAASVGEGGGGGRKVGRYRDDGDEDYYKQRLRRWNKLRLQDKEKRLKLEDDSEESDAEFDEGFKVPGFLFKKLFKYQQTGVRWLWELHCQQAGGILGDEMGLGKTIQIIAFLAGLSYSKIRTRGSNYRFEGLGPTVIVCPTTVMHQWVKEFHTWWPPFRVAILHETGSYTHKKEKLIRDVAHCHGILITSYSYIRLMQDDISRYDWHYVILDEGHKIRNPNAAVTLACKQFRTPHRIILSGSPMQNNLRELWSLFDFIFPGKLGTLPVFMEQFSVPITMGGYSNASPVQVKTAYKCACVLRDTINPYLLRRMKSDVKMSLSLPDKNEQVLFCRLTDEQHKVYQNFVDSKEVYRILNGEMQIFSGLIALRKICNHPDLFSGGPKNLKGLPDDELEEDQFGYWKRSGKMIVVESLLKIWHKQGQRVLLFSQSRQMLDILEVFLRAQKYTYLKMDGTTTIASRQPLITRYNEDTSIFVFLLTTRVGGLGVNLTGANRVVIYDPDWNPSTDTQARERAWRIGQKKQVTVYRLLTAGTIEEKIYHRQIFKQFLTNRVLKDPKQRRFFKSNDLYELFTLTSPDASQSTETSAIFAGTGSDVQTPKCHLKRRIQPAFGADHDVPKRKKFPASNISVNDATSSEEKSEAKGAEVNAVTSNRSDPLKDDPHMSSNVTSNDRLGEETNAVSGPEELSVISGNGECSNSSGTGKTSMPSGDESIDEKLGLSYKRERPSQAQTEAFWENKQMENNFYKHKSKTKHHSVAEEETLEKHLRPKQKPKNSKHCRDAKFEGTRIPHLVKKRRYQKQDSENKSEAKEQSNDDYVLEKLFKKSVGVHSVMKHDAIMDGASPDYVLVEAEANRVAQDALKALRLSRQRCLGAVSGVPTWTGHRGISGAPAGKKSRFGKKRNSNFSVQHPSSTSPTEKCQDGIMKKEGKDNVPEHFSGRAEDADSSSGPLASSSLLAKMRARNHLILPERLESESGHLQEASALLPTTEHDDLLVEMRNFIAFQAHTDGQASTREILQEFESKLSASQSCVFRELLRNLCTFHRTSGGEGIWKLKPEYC

| Binder | Kd (CSB wild-type [1]) [nM] | Kd (CSB wild-type [2]) [nM] | Kd (CSB wild-type [3]) [nM] | Kd (CSB wild-type [4]) [nM] |
| --- | --- | --- | --- | --- |
| 34G/34C (dsDNA) DNA 1: GTACCCGGGGATCCGTACGGCGCATCAGCTGCAG DNA 2: CTGCAGCTGATGCGCCGTACGGATCCCCGGGTAC | 13.7 ± 1.1 | 20.5 ± 5.2 | 10.7 ± 0.6 | – |
| DNA50/DNA49 fork (dsDNA) DNA 1: GGGACGCGTCGGCCTGGCACGTCGGCCGCTGCGGCCAGGCACCCGATGGC DNA 2: TTTGTTTGTTTGTTTGTTTGTTTGCCGACGTGCCAGGCCGACGCGTCCC | – | – | – | 5.9 ± 0.6 |
| DNA50/RNA49 fork (DNA:RNA) DNA: GGGACGCGTCGGCCTGGCACGTCGGCCGCTGCGGCCAGGCACCCGATGGC RNA: UUUGUUUGUUUGUUUGUUUGUUUGCCGACGUGCCAGGCCGACGCGUCCC | – | – | – | 13.4 ± 3.3 |
| RNA50/RNA49 fork (dsRNA) RNA 1: GGGACGCGUCGGCCUGGCACGUCGGCCGCUGCGGCCAGGCACCCGAUGGC RNA 2: UUUGUUUGUUUGUUUGUUUGUUUGCCGACGUGCCAGGCCGACGCGUCCC | – | – | – | 3.6 ± 1.5 |
